Assay [1] has as its target tethered gp140 89.6 (HIV-1 isolate 89.6) (UniProt Q73372). Put plainly: competition ELISA; competitor (coated): Fab m47; biotinylated gp140 89.6; competing antibody at 12 µg/ml.
The target is the same in assay [2]. Kind of assay: competition ELISA; competitor (coated): Fab m48; biotinylated gp140 89.6; competing antibody at 12 µg/ml. For orientation: In an ELISA, binding on a coated surface is turned into a signal by an enzyme label.
Assay [3] shares this target. Kind of assay: competition ELISA; competitor (coated): Fab m44; biotinylated gp140 89.6; competing antibody at 12 µg/ml.
For assay [4] the target is unchanged. Kind of assay: competition ELISA; competitor (coated): Fab m43; biotinylated gp140 89.6; competing antibody at 12 µg/ml.
The target is the same in assay [5]. Put plainly: competition ELISA; competitor (coated): Fab m45; biotinylated gp140 89.6; competing antibody at 12 µg/ml.

The results in this text go back to patent US20070292390A1.

Fab Z13: the Inhibition, % in assay [1] was determined as 41%; in assay [2] it was 87%; in assay [3], 57%; in assay [4], 72%; in assay [5], 0%.

Turning to IgG 2F5 (antibody), the Inhibition, % in assay [1] amounted to 31%; in assay [2], 74%; in assay [3], 38%; in assay [4] it was 51%; in assay [5] it was 0%.

Regarding IgG 4E10 (antibody), the Inhibition, % in assay [1] is 10%; in assay [2], 63%; in assay [3], 42%; in assay [4], 29%; in assay [5], 6%.
